Target: T1, Human MutSα (MSH2-MSH6 heterodimer) (human, UniProt P43246 1-934; P52701 1-1360)
T1 construct: MSH2, human, subunit of MutSα; MSH6, human, subunit of MutSα
Test: co-IP; purified proteins; MutSα- or MutLα-containing agarose beads (antibodies against MSH2 or MLH1), DNA2 in solution; for MutSα 30-μl mixtures with MutSα (3.4 pmol) and DNA2 (3.4 pmol); eluted fractions analyzed by immunoblotting
Settings: both partners purified

T1 sequence (P43246 whole entry, chain 1 of 2): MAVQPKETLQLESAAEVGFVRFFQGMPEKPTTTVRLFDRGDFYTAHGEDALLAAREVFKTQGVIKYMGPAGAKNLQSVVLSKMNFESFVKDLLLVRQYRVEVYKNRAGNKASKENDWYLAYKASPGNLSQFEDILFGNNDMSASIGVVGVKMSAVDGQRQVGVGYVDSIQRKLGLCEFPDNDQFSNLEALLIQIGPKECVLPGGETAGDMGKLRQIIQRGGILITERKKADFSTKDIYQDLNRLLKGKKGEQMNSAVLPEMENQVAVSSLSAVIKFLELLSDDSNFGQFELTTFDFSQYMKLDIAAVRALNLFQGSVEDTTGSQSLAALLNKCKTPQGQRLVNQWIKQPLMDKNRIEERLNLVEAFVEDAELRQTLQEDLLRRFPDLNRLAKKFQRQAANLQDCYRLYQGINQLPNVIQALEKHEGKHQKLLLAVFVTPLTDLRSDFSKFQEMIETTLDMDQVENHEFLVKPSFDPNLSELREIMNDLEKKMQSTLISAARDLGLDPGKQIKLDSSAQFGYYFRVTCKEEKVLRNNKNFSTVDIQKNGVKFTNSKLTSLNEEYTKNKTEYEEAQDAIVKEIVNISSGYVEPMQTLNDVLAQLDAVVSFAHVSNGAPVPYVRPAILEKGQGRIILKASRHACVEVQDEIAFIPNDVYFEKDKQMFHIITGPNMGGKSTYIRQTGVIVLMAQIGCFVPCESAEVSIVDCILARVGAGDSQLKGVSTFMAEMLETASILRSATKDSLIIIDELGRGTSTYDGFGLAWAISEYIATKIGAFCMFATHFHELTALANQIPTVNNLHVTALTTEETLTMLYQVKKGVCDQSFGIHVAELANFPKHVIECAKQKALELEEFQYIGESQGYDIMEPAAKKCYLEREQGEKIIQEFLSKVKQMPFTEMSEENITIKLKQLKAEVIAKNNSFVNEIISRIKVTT
T1 sequence (P52701 whole entry, chain 2 of 2): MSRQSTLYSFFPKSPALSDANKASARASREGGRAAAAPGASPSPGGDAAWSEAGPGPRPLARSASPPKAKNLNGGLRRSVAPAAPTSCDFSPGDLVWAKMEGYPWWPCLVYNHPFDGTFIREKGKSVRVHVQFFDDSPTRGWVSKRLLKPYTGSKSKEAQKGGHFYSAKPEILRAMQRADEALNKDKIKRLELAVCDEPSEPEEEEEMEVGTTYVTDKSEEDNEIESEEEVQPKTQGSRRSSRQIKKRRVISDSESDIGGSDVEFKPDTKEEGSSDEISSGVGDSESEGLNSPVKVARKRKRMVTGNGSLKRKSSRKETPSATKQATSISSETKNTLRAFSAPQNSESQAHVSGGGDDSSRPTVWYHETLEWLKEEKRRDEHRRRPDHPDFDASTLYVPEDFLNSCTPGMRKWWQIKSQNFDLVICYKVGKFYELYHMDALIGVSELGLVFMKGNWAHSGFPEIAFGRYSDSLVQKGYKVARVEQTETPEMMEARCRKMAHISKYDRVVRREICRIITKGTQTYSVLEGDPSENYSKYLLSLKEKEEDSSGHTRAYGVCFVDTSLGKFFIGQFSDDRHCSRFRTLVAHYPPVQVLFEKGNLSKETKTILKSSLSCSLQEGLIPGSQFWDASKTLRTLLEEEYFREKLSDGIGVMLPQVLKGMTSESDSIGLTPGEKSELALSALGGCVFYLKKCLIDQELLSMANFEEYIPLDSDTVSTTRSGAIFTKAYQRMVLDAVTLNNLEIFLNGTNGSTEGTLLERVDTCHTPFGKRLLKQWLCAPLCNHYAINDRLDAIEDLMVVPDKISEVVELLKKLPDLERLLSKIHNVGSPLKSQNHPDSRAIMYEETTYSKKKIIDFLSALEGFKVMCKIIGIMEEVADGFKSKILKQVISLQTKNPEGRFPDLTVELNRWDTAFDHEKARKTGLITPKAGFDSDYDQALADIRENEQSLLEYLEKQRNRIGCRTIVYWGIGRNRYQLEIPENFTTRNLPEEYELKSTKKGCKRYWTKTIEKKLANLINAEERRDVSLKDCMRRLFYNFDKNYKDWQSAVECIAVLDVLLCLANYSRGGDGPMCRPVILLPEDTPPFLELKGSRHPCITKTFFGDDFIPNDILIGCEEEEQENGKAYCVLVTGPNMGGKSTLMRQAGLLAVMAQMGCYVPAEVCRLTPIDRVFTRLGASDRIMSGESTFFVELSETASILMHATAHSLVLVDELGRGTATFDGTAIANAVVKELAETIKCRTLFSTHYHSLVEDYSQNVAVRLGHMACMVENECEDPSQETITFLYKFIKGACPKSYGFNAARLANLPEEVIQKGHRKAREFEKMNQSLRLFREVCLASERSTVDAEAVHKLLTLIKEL

B1: Human DNA2 nuclease/helicase (enzyme, UniProt P51530 1-1060, looked up)
chain: MEQLNELELLMEKSFWEEAELPAELFQKKVVASFPRTVLSTGMDNRYLVLAVNTVQNKEGNCEKRLVITASQSLENKELCILRNDWCSVPVEPGDIIHLEGDCTSDTWIIDKDFGYLILYPDMLISGTSIASSIRCMRRAVLSETFRSSDPATRQMLIGTVLHEVFQKAINNSFAPEKLQELAFQTIQEIRHLKEMYRLNLSQDEIKQEVEDYLPSFCKWAGDFMHKNTSTDFPQMQLSLPSDNSKDNSTCNIEVVKPMDIEESIWSPRFGLKGKIDVTVGVKIHRGYKTKYKIMPLELKTGKESNSIEHRSQVVLYTLLSQERRADPEAGLLLYLKTGQMYPVPANHLDKRELLKLRNQMAFSLFHRISKSATRQKTQLASLPQIIEEEKTCKYCSQIGNCALYSRAVEQQMDCSSVPIVMLPKIEEETQHLKQTHLEYFSLWCLMLTLESQSKDNKKNHQNIWLMPASEMEKSGSCIGNLIRMEHVKIVCDGQYLHNFQCKHGAIPVTNLMAGDRVIVSGEERSLFALSRGYVKEINMTTVTCLLDRNLSVLPESTLFRLDQEEKNCDIDTPLGNLSKLMENTFVSKKLRDLIIDFREPQFISYLSSVLPHDAKDTVACILKGLNKPQRQAMKKVLLSKDYTLIVGMPGTGKTTTICTLVRILYACGFSVLLTSYTHSAVDNILLKLAKFKIGFLRLGQIQKVHPAIQQFTEQEICRSKSIKSLALLEELYNSQLIVATTCMGINHPIFSRKIFDFCIVDEASQISQPICLGPLFFSRRFVLVGDHQQLPPLVLNREARALGMSESLFKRLEQNKSAVVQLTVQYRMNSKIMSLSNKLTYEGKLECGSDKVANAVINLRHFKDVKLELEFYADYSDNPWLMGVFEPNNPVCFLNTDKVPAPEQVEKGGVSNVTEAKLIVFLTSIFVKAGCSPSDIGIIAPYRQQLKIINDLLARSIGMVEVNTVDKYQGRDKSIVLVSFVRSNKDGTVGELLKDWRRLNVAITRAKHKLILLGCVPSLNCYPPLEKLLNHLNSEKLIIDLPSREHESLCHILGDFQRE
notes: DNA2 nuclease/helicase, human; wild type; source: insect Sf9 cells (baculovirus, codon-optimized gene), purified (α-Flag M2 beads, MonoS column)
- binding result: binds
